For assay [1], the target named is T1, Claudin 18.2 (CLDN18.2), expressed on CHOS-CLDN 18.2 / HEK293-CLDN 18.2 / HCC827-CLDN 18.2 cells (human, UniProt P56856-2 1-261).
T1 construct: whole, on cells; The species is not repeated for the CHOS-CLDN 18.2 cells; also called claudin-18A2
Description: FACS, CHOS-CLDN18.2 cells, 0 µg/ml (background). On the technique in general: In flow cytometry, cells or beads pass a laser one at a time.
Description: (§1) The initial concentration of the antibody was 20 μg/ml, it was diluted at 1:4, and incubated at 4° C. for 60 min.

For assay [2], the target named is T1, Claudin 18.2 (CLDN18.2), expressed on …. Put plainly: FACS, CHOS-CLDN18.2 cells, 20 µg/ml.
Description: as §1
The target is the same in assay [3]. Put plainly: FACS, CHOS-CLDN18.2 cells.
Description: as §1
Assay [4] shares this target. Description: FACS, CHOS-CLDN18.2 cells, 0.005 µg/ml.
Description: as §1
Assay [5] has the same target. Put plainly: FACS, CHOS-CLDN18.2 cells, 1.250 µg/ml.
Description: as §1
Assay [6] shares this target. Put plainly: FACS, CHOS-CLDN18.2 cells, 1.250 µg/ml. This is another data set of the same source.
Description: as §1
The target is the same in assay [7]. Put plainly: FACS, CHOS-CLDN18.2 cells, 0.005 µg/ml. The source holds these as a separate data set.
Description: as §1
Assay [8] has the same target. Description: FACS, CHOS-CLDN18.2 cells, 0.078 µg/ml.
Description: as §1
The target is the same in assay [9]. Put plainly: FACS, CHOS-CLDN18.2 cells, 5 µg/ml.
Description: as §1
For assay [10] the target is unchanged. Put plainly: FACS, CHOS-CLDN18.2 cells, 20 µg/ml. The source holds these as a separate data set.
Description: as §1
Assay [11] has the same target. Description: FACS, CHOS-CLDN18.2 cells, 1.250 µg/ml. The source holds these as a separate data set.
Description: as §1
The target is the same in assay [12]. Description: FACS, CHOS-CLDN18.2 cells. The source holds these as a separate data set.
Description: as §1
The target is the same in assay [13]. Put plainly: FACS, CHOS-CLDN18.2 cells, 5 µg/ml. This is another data set of the same source.
Description: as §1
The target is the same in assay [14]. Put plainly: FACS, CHOS-CLDN18.2 cells, 0.313 µg/ml.
Description: as §1
For assay [15] the target is unchanged. Description: FACS, CHOS-CLDN18.2 cells, 0.005 µg/ml. The source holds these as a separate data set.
Description: as §1
The target is the same in assay [16]. Description: FACS, CHOS-CLDN18.2 cells, 10 µg/ml.
Description: The initial concentration of the antibody was 20 μg/mkit was diluted at 1:4, and incubated at 4° C. for 60 min.
For assay [17] the target is unchanged. Put plainly: FACS, CHOS-CLDN18.2 cells, 20 µg/ml. This is another data set of the same source.
Description: as §1
For assay [18] the target is unchanged. Description: FACS, CHOS-CLDN18.2 cells, 0 µg/ml (background). The source holds these as a separate data set.
Description: as §1

Where two headings read alike, the source gives them in different places.

B1: QP024025 (antibody, human IgG1, V domains shown)
VH: QVQLQQPGAELVRPGASVKLSCKASGYTFTSYWINWVKQRPGQGLEWIGNIYPSDSYTNYNQKFKDKATLTVDKSSSTAYMQLSSPTSEDSAVYYCTRSWRGNSFDYWGQGTTLTVSS
VL: DIVMTQSPSSLTVTAGEKVTMSCKSSQSLLNSGNQKNYLTWYQQKPGQPPKLLIYWASTRESGVPDRFTGSGSGTDFTLTISSVQAEDLAVYYCQNDYSYPFTFGSGTKLEIK
notes: also called IMAB362; 175D10(IMAB362)
B1: the FACS reading in assay [1] is 732; in [2] it was 72300; in assay [4] it was 2830; in [5], 63700; in assay [6] it was 63700; in assay [7] it was 2830. Moreover, the FACS reading in [8] came out at 18200; in assay [9] it was 105000; in assay [10] it was 72300; in assay [11] it was 63700; in assay [13], 105000; in [14], 51000. Further, the FACS reading in [15] amounted to 2830; in [17], 72300; in assay [18] it was 732. Besides, the EC50 in [3] and in assay [12] was 0.27 µg/mL throughout. Moreover, the max in assay [3] and in [12] was 88600 each time. The same molecule had an MFI in assay [16] of 145000.
